Earlier results, collected in PMC3332193.

Target: EGFR (Homo sapiens) (UniProt P00533)

Kd: < 12 nM
Substance: EGF (from UniProt P01133)
